{
  "source": "paper PMC6310155",
  "target": "MmRIPK3 (S02-H303) kinase domain, N-terminal histidine tag (mouse)",
  "assay": "SEC",
  "data": [
    {"substance": "MmRIPK3 (S02-H303) kinase domain, N-terminal histidine tag (domain or fragment)", "values": [
      {"measurement": "stoichiometry N", "value": 2}
    ]}
  ]
}
